Laboratory results published in patent US20250332264A1, “GhR-BINDING PEPTIDE AND COMPOSITION COMPRISING SAME” (priority 2021, published 2025).
One block for each binder: values may come before it. Starred links: 1 amine or outer side, 2 acyl side, 3 side chain; linkers in the order of their positions; H or OH if unused. Positions of bridges follow the written chain, without caps; N, C: chain ends. Non-standard residues stand in square brackets, D forms with d. Groups on a side chain read outwards from the residue. No end group written: not given here. *: point of attachment. A4pipaa = 4-amino-1-(carboxymethyl)piperidine-4-carboxylic acid, O=C(C1(N[*:1])CCN(CC(=O)[*:3])CC1)[*:2]; BiPh4pCO = 4-([1,1′-biphenyl]-4-yl)butanoic acid, O=C(CCCc1ccc(-c2ccccc2)cc1)*; Biph4pCO = 4-([1,1′-biphenyl]-4-yl)butanoic acid, O=C(CCCc1ccc(-c2ccccc2)cc1)*; X1 = 4‑(carboxymethyl)piperazine‑1‑carbonyl, O=C(O)CN1CCN(C(=O)*)CC1; Trp(1-CH2CO) = O=C([C@H](Cc1cn(CC(=O)[*:3])c2ccccc12)N[*:1])[*:2]; Trp(5-OMe) = COc1ccc2[nH]cc(C[C@H](N)C(=O)O)c2c1; Butanoyl(4-(4-I-phenyl)) = O=C(CCCc1ccc(I)cc1)*; Trp(5-OH) = N[C@@H](Cc1c[nH]c2ccc(O)cc12)C(=O)O; Phe(4-COOH) = N[C@@H](Cc1ccc(C(=O)O)cc1)C(=O)O; Trp(7-aza) = N[C@@H](Cc1c[nH]c2ncccc12)C(=O)O; Butanoyl(4-(4-MePh)) = Cc1ccc(CCCC(=O)*)cc1; C17 diacid = O=C(O)CCCCCCCCCCCCCCCC(=O)*; C16 diacid = O=C(O)CCCCCCCCCCCCCCC(=O)*; C15 diacid = O=C(O)CCCCCCCCCCCCCC(=O)*; C14 diacid = O=C(O)CCCCCCCCCCCCC(=O)*; Hexanoyl(6-Ph) = O=C(CCCCCc1ccccc1)*; Butanoyl(4-Ph) = O=C(CCCc1ccccc1)*; 4Pal = N[C@@H](Cc1ccncc1)C(=O)O; NMeK = CN[C@@H](CCCCN)C(=O)O; W5H = not defined here; AEEA = NCCOCCOCC(=O)O; Aib = CC(C)(N)C(=O)O

Biological target: Recombinant human GhR-Fc protein (R&D Systems) (human) (UniProt P10912)
Test: SPR, Biacore T200, single-cycle kinetics, GhR-Fc immobilised on CM5

Sequence of Recombinant human GhR-Fc protein (R&D Systems) (human) (P10912 19-264 limits assumed): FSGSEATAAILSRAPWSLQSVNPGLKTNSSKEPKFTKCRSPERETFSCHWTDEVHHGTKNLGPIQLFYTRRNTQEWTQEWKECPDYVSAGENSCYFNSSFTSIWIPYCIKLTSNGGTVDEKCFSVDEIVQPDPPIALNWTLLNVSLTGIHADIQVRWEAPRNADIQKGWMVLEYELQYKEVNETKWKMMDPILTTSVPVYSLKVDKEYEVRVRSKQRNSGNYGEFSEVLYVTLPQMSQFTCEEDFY

B1: GhR_PD_211 (peptide)
peptide: {CH2CO}-YKVVSN[Trp(5-OMe)][Phe(4-COOH)]K[Trp(5-OH)][Aib]VC-NH2
modifications: thioether N-13; not fully specified (residue 2); also: albumin binder E-E-4IPhpCO, attachment site not given here
- Kd: 3.36 nM

Binder: {CH2CO}-[Phe(4-COOH)][NMeK]([Glu-Hexanoyl(6-Ph)])VVSN[Trp(5-OMe)][Phe(4-COOH)]K[Trp(5-OH)][4‑amino‑1‑(carboxymethyl)piperidine‑4‑carboxylic acid]VC-NH2 (thioether N-13) [GhR_PD_256]
- Kd: 2.82 nM

Binder: {CH2CO}-[Phe(4-COOH)]KVVSN[Trp(1-CH2CO)][Phe(4-COOH)]K[Trp(5-OH)][Aib]VCK([AEEA-AEEA-Glu-Glu-C17 diacid])-NH2 (thioether N-13; lactam 2-7; not fully specified (residue 2)) [GhR_PD_274]
- Kd: 3.33 nM

B2: GhR_PD_204 (peptide)
peptide: {CH2CO}-[4Pal]KVVSN[Trp(7-aza)][Phe(4-COOH)]K[Trp(5-OH)][Aib]VC-NH2
modifications: thioether N-13; not fully specified (residue 2); also: albumin binder E-4IPhpCO, attachment site not given here
- Kd: 9.43 nM

B3: GhR_PD_203 (peptide)
peptide: {CH2CO}-YKVVSN[Trp(7-aza)][Phe(4-COOH)]K[Trp(5-OH)][Aib]VC-NH2
modifications: thioether N-13; not fully specified (residue 2); also: albumin binder E-4IPhpCO, attachment site not given here
- Kd: 3.95 nM

Binder: {CH2CO}-[Phe(4-COOH)]KVVSN[Trp(1-CH2CO)][Phe(4-COOH)]K[Trp(5-OH)][Aib]VCK([AEEA-AEEA-Glu-Glu-C14 diacid])-NH2 (thioether N-13; lactam 2-7; not fully specified (residue 2)) [GhR_PD_271]
- Kd: 3.88 nM

Binder: {CH2CO}-[Phe(4-COOH)][NMeK]([Glu-BiPh4pCO])VVSN[Trp(5-OMe)][Phe(4-COOH)]K[Trp(5-OH)][4‑amino‑1‑(carboxymethyl)piperidine‑4‑carboxylic acid]VC-NH2 (thioether N-13) [GhR_PD_255]
- Kd: 5.81 nM

Binder: {CH2CO}-[Phe(4-COOH)]KVVSN[Trp(1-CH2CO)][Phe(4-COOH)]K[Trp(5-OH)][Aib]VCK([Glu-Butanoyl(4-(4-I-phenyl))])-NH2 (thioether N-13; lactam 2-7; not fully specified (residue 2)) [GhR_PD_247]
- Kd: 1.36 nM

Binder: {CH2CO}-[Phe(4-COOH)]KVVSN[Trp(1-CH2CO)][Phe(4-COOH)]K[Trp(5-OH)][Aib]VCK([Glu-Glu-Butanoyl(4-(4-I-phenyl))])-NH2 (thioether N-13; lactam 2-7; not fully specified (residue 2)) [GhR_PD_217]
- Kd: 1.46 nM

Binder: {CH2CO}-[Phe(4-COOH)]KVVSN[Trp(1-CH2CO)][Phe(4-COOH)]K[Trp(5-OH)][Aib]VCK([Glu-Glu-Hexanoyl(6-Ph)])-NH2 (thioether N-13; lactam 2-7; not fully specified (residue 2)) [GhR_PD_254]
- Kd: 1.93 nM

Binder: {CH2CO}-Y[MeK]([Glu-Glu-Butanoyl(4-(4-I-phenyl))])VVSN[Trp(5-OMe)][Phe(4-COOH)]K[Trp(5-OH)][A4pipaa]VC-NH2 (thioether N-13) [GhR_PD_228]
- Kd: 4.13 nM

B8: GhR_PD_212 (peptide)
peptide: {CH2CO}-[Phe(4-COOH)]KVVSN[Trp(5-OMe)][Phe(4-COOH)]K[Trp(5-OH)][Aib]VC-NH2
modifications: thioether N-13; not fully specified (residue 2); also: albumin binder E-E-4IPhpCO, attachment site not given here
- Kd: 2.96 nM

B9: GhR_PD_224 (peptide)
peptide: {CH2CO}-[Phe(4-COOH)]KVVSN[Trp(5-OMe)][Phe(4-COOH)]K[Trp(5-OH)][A4pipaa]VC-NH2
modifications: thioether N-13; not fully specified (residue 2); also: albumin binder E-4IPhpCO, attachment site not given here
- Kd: 10.8 nM

The remaining binders from weak to strong by Kd, led by results:

- Kd: 9.67 nM
B5: GhR_PD_206 (peptide)
peptide: {CH2CO}-YKVVSN[Trp(5-OMe)]YK(X1)[Trp(5-OH)][Aib]VC-NH2
modifications: thioether N-13; not fully specified (residue 2); also: albumin binder E-4IPhpCO, attachment site not given here

- Kd: 7.38 nM
Binder: {CH2CO}-Y[MeK]([Glu-Glu-Butanoyl(4-(4-I-phenyl))])VVSN[Trp(5-OMe)][Phe(4-COOH)]K(X1)[Trp(5-OH)][Aib]VC-NH2 (thioether N-13) [GhR_PD_227]

- Kd: 5.47 nM
B6: GhR_PD_223 (peptide)
peptide: {CH2CO}-[Phe(4-COOH)]KVVSN[Trp(5-OMe)][Phe(4-COOH)]K(X1)[Trp(5-OH)][Aib]VC-NH2
modifications: thioether N-13; not fully specified (residue 2); also: albumin binder E-4IPhpCO, attachment site not given here

- Kd: 3.7 nM
Binder: {CH2CO}-[Phe(4-COOH)]KVVSN[Trp(1-CH2CO)][Phe(4-COOH)]K[Trp(5-OH)][Aib]VCK([AEEA-AEEA-Glu-Glu-C15 diacid])-NH2 (thioether N-13; lactam 2-7; not fully specified (residue 2)) [GhR_PD_272]

- Kd: 3.61 nM
Binder: {CH2CO}-[Phe(4-COOH)]KVVSN[Trp(1-CH2CO)][Phe(4-COOH)]K[Trp(5-OH)][Aib]VCK([AEEA-AEEA-Glu-Glu-C16 diacid])-NH2 (thioether N-13; lactam 2-7; not fully specified (residue 2)) [GhR_PD_273]

- Kd: 3.51 nM
Binder: {CH2CO}-[Phe(4-COOH)]KVVSN[Trp(1-CH2CO)][Phe(4-COOH)]K[Trp(5-OH)][Aib]VCK([Glu-Glu-Ac])-NH2 (thioether N-13; lactam 2-7; not fully specified (residue 2)) [GhR_PD_267]

- Kd: 3.1 nM
Binder: {CH2CO}-[Phe(4-COOH)]KVVSN[Trp(1-CH2CO)][Phe(4-COOH)]K[Trp(5-OH)][Aib]VCK([Glu-Glu-C15 diacid])-NH2 (thioether N-13; lactam 2-7; not fully specified (residue 2)) [GhR_PD_269]

- Kd: 2.85 nM
B4: GhR_PD_233 (peptide)
peptide: {CH2CO}-[F4COO][MeK]VVSN[W1aa][F4COO]K[W5H][Aib]VCK
modifications: thioether N-13; lactam 2-7; reading uncertain; also: albumin binder E-E-cC14COO on the side-chain amino group of the linker lysine, which lysine is not given here

- Kd: 2.77 nM
B7: GhR_PD_202 (peptide)
peptide: {CH2CO}-[4Pal]KVVSN[Trp(5-OMe)][Phe(4-COOH)]K[Trp(5-OH)][Aib]VC-NH2
modifications: thioether N-13; not fully specified (residue 2); also: albumin binder E-4IPhpCO, attachment site not given here

- Kd: 2.53 nM
Binder: {CH2CO}-[Phe(4-COOH)]KVVSN[Trp(1-CH2CO)][Phe(4-COOH)]K[Trp(5-OH)][Aib]VCK([Glu-Glu-C17 diacid])-NH2 (thioether N-13; lactam 2-7; not fully specified (residue 2)) [GhR_PD_270]

- Kd: 2.19 nM
B10: GhR_PD_208 (peptide)
peptide: {CH2CO}-[Phe(4-COOH)]KVVSN[Trp(5-OMe)][Phe(4-COOH)]K[Trp(5-OH)][Aib]VC-NH2
modifications: thioether N-13; not fully specified (residue 2); also: albumin binder E-4IPhpCO, attachment site not given here

- Kd: 2.03 nM
Binder: {CH2CO}-[Phe(4-COOH)]KVVSN[Trp(1-CH2CO)][Phe(4-COOH)]K[Trp(5-OH)][Aib]VCK([Glu-Glu-Butanoyl(4-Ph)])-NH2 (thioether N-13; lactam 2-7; not fully specified (residue 2)) [GhR_PD_218]

- Kd: 1.95 nM
Binder: {CH2CO}-[Phe(4-COOH)]KVVSN[Trp(1-CH2CO)][Phe(4-COOH)]K[Trp(5-OH)][Aib]VCK([Glu-Glu-Butanoyl(4-(4-MePh))])-NH2 (thioether N-13; lactam 2-7; not fully specified (residue 2)) [GhR_PD_245]

- Kd: 1.88 nM
Binder: {CH2CO}-[Phe(4-COOH)]KVVSN[Trp(1-CH2CO)][Phe(4-COOH)]K[Trp(5-OH)][Aib]VCGP[dS][dS][dS]K([Glu-Glu-Butanoyl(4-(4-I-phenyl))])-NH2 (thioether N-13; lactam 2-7; not fully specified (residue 2)) [GhR_PD_248]

- Kd: 1.61 nM
Binder: {CH2CO}-[Phe(4-COOH)]KVVSN[Trp(1-CH2CO)][Phe(4-COOH)]K[Trp(5-OH)][Aib]VCK([Glu-Glu-Biph4pCO])-NH2 (thioether N-13; lactam 2-7; not fully specified (residue 2)) [GhR_PD_253]
